Data on three molecules can be found in article PMC10087552, “Non‐canonical binding of the Chaetomium thermophilum PolD4 N‐terminal PIP motif to PCNA involves Q‐pocket and compact 2‐fork plug interactions but no 3_10 helix” (The Febs Journal, 2022).

In test [1] the target is Chaetomium thermophilum PCNA (proliferating cell nuclear antigen) (Chaetomium thermophilum). Briefly: crystal structure; co-crystallisation of Ct PCNA with the peptide; 0.2 M calcium acetate, 0.1 M sodium cacodylate pH 6.5, 36% PEG 300; 2.45 Å, space group P1, two trimers in the asymmetric unit.
Test [2] shares this target. Briefly: crystal structure; apo Ct PCNA; 0.1 M PTCP buffer pH 5.0, 25% PEG 1500; 2.34 Å, space group H3, a single chain in the asymmetric unit.
The target in test [3] is human PCNA. The note with it: human PCNA–p12 PIP peptide interaction; ref [25]; read-out: dissociation constant (K D); cited from earlier work. The protocol: To examine the interaction between the Ct PolD4 PIP motif and Ct PCNA in greater detail and in the absence of GST, isothermal titration calorimetry (ITC) was used to determine the binding affinity of PCNA for a 15 amino acid synthetic PolD4 PIP peptide (sequence: ^21KHQSTLNFKHRVTKP^35) and the stoichiometry of the interaction (Fig. 4C). The dissociation constant (K D) was determined to be 22 ± 0.6 μM at 25 °C, broadly similar to that reported for the human PCNA–p12 PIP peptide interaction (38 ± 4 μM). The stoichiometry was determined to be 1 : 1 (i.e. 1 peptide : 1 PCNA protomer) indica ... || Three amino acids are key to interactions between Ct PolD4 and Ct PCNA: Gln23, Leu26 and Phe28. All three are strictly conserved in PolD4 proteins from fungal species closely related to C. thermophilum (Fig. 3). The sidechain of Gln23 inserts into the Q‐pocket on PCNA while the sidechains of Leu26 and Phe28 insert into the hydrophobic pocket located under the interdomain connector loop (IDCL) on the surface of PCNA (Figs 5 and 6A, upper left panel). The human p12 protein lacks the glutamine, equivalent to Gln23, that marks the start of the canonical PIP motif (Qxxψxxθθ), instead having a lysin ...

Test [4] deals with Chaetomium thermophilum PCNA (proliferating cell nuclear antigen) (Chaetomium thermophilum). Briefly: ITC; Ct PolD4 PIP peptide (400 uM) titrated into Ct PCNA (30 uM) in the cell, 25 °C, 50 mM Tris-HCl, 50 mM NaCl, pH 8.0; single-site binding model; duplicate. (ITC needs no label: the signal is the heat of the interaction.)

In general, stoichiometry N refers to a count of units in the complex or per binding partner. Regarding “Chaetomium thermophilum PCNA (proliferating cell nuclear antigen) (natural protein)”, the stoichiometry N in test [1] and in test [2] was 3 protomers in each case.
Regarding “RKRLITDSYPVV [human p12 PIP peptide, N‐terminal PIP motif peptide of the human Pol δ subunit p12 (PolD4)]”, in test [3], the Kd is 38 ± 4 µM.
As to KHQSTLNFKHRVTKP [Ct PolD4 PIP peptide (residues 21-35 of Chaetomium thermophilum PolD4)], in test [4], the Kd stood at 22 µM and the stoichiometry N (peptide per PCNA protomer) was determined as 1.
